By Kd is commonly meant the constant that tells how readily two partners part at equilibrium.

First the molecules themselves.
T1: VEGF-165 (VEGFA isoform 165) (Homo sapiens)
T1 chain: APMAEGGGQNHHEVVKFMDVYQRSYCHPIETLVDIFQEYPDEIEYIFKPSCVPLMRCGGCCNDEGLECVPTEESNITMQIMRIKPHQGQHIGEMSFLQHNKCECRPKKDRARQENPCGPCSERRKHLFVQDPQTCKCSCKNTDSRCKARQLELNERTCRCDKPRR

B1: AMS0525.4 (ssRNA)
RNA: CCGAUAAGCCAACAAACGUACAUUCUCUGUUAGUAUUCGG
modifications: 2'-F all positions
B2: AMS0525 (ssRNA)
RNA: GCAUAGAUAAGCCAACAAACGUACAUUCUCUGUUAGUAUUUUCUGCACACCGUCGCUUAGU
modifications: 2'-F all positions
B3: AMS0525.3 (ssRNA)
RNA: GCCUUAGAUAAGCCAACAAACGUACAUUCUCUGUUAGUAUUUUCAGGC
modifications: 2'-F all positions
B4: AMS0525.5 (ssRNA)
RNA: B3 RNA with G1C, C2G, U4A, A45U, G47C, C48G
modifications: 2'-OMe at 1-4 and 45-48, 2'-F elsewhere
B5: AMS0525.6 (ssRNA)
RNA: B3 RNA with G1C, C2G, U4A, A45U, G47C, C48G
modifications: LNA at 1-4 and 45-48, 2'-F elsewhere
B6: AMS0425.3 (ssRNA)
RNA: CGUGGAGAUGCAUUCUUCGAGAUUGGCUAACACG
modifications: 2'-F all positions
B7: AMS0409 (ssRNA)
RNA: UCCGCUUGCGGAGCACCUUCUGUAUUCUGC
modifications: 2'-F all positions
B8: AMS0407 (ssRNA)
RNA: B7 RNA with C16G
modifications: 2'-F all positions
B9: AMS0410 (ssRNA)
RNA: GGAAAACAGUAUAAUGUCUUGUUUCUUCUC
modifications: 2'-F all positions
B10: AMS0416 (ssRNA)
RNA: CCAACCGUGUAUCUGUCUUGCUUGCGGCGGUUUUGUUGUG
modifications: 2'-F all positions
B11: AMS0427.1 (ssRNA)
RNA: CGCUAGAUGGCUAACACUAUUGUGGAGAUGCACUAGCG
modifications: 2'-OMe at 1-3 and 36-38, 2'-F elsewhere
B12: AMS0427.2 (ssRNA)
RNA: B11 RNA
modifications: LNA at 1-3 and 36-38, 2'-F elsewhere
B13: AMS0419 (ssRNA)
RNA: AGUUAUUUGGUGGAGAGGAUCCAUUUAGCUUAUACAAUUC
modifications: 2'-F all positions
B14: AMS0420 (ssRNA)
RNA: CCGGCCAUUGGUGGAGAUUAUCCUUUGAGUACGGUUAUUC
modifications: 2'-F all positions
B15: AMS0425 (ssRNA)
RNA: CGUGGAGAUGCAUUCUGUCGAGGAUUGGCUAACACGCGAA
modifications: 2'-F all positions
B16: AMS0425.10 (ssRNA)
RNA: CAGGUGGAGAUGCAUUCUGUCGAAGAUUGGCUAACACCUG
modifications: 2'-F all positions
B17: AMS0421.5 (ssRNA)
RNA: CGCUAGAUGGCCUAACACGUAUAUUUGUGGAGAUGGCACUAGCG
modifications: 2'-F all positions
B18: AMS0421.1 (ssRNA)
RNA: UCCUUAGAUGGCUAACACGUAUAUUUGUGGAGAUGCACUA
modifications: 2'-F all positions
B19: AMS0421.4 (ssRNA)
RNA: CGCUAGUGGCGAACACGUAUAUUUGUGGCGAUGCACUAGCG
modifications: 2'-F all positions
B20: AMS0425.11 (ssRNA)
RNA: GCCGUGGAGAUGCGUUCCGUCGGGAUCGGCUAACACGGC
modifications: 2'-F all positions
B21: AMS0425.1 (ssRNA)
RNA: CGUGGAGAUGCAUUCUGUCGAGGAUUGGCUAACACG
modifications: 2'-F all positions
B22: AMS0425.8 (ssRNA)
RNA: B21 RNA with A12G, U16C, U26C
modifications: 2'-F all positions
B23: AMS0411 (ssRNA)
RNA: GGUUUAUCUUAACUUUCUGCUACGAUACAGUUUUUGUUGA
modifications: 2'-F all positions
B24: AMS0408 (ssRNA)
RNA: B7 RNA with C16U
modifications: 2'-F all positions
B25: AMS0421.3 (ssRNA)
RNA: GCGUAGAUGGCUAACACUAUUGUGGAGAUGCACUACGC
modifications: 2'-F all positions
B26: AMS0425.12 (ssRNA)
RNA: GCCGUGGAGAUGCGUUCCGUCGAGGAUCGGCUAACACGGC
modifications: 2'-F all positions
B27: AMS0421 (ssRNA)
RNA: UUUCGCUAGAUGGCUAACACGUAUAUUUGUGGAGAUGCACUAGCG
modifications: 2'-F all positions
B28: AMS0430 (ssRNA)
RNA: GCGGAUUGGCUAACACGGUCGACGUGGAGAUGCAUUCCGC
modifications: 2'-F all positions
B29: AMS0402 (ssRNA)
RNA: GUGCUUCAUAUCCGUCCCCCCCUUGCUGCG
modifications: 2'-F all positions
B30: AMS0401 (ssRNA)
RNA: GCUCUUCAGCCCCGCGCCGGGUCCCACUCUGCGCCGCUC
modifications: 2'-F all positions
B31: AMS0406 (ssRNA)
RNA: GCUCUUCGGUGUUAACUACCAAUCGUUGAUCGUUUUGCAAAAAAUUCC
modifications: 2'-F all positions
B32: AMS0405 (ssRNA)
RNA: B31 RNA with G8A, G9A, A40G
modifications: 2'-F all positions
B33: AMS0404 (ssRNA)
RNA: UUCUGUCUUUUUAGAUAAUGUCCCCUUGUUGCACAUUACA
modifications: 2'-F all positions
B34: AMS0403 (ssRNA)
RNA: AUUCUGUCUUUUUAAAUAAUGUCCCCUUGUUGCACAUUACAGAA
modifications: 2'-F all positions

Where a chain is given by its changes, count along the chain named. A value given as a limit tells only on which side of the number the result lay.

The target of the first data set is Angiopoietin-2 (Ang2) (Homo sapiens, UniProt O15123 O15123:19-496). Kind of data set: flow; PBSMCT, 37 C. The following applies: tags: His tag, R&D Systems 623-AN; label: biotin. The protocol: Various mutations and truncated variants of a representative anti-Ang2 aptamer (AMS0525) were obtained and their binding affinity to Ang2 were measured using magnetic bead partitioning. Biotinylated anti-Ang2 aptamers were conjugated to the 1 μm streptavidin-coated MyOne Streptavidin Cl magnetic beads (Thermo Fisher Scientific, 65002). Binding assays were performed by incubating fixed concentration of aptamer (0.01 nM) and Ang2 protein at concentrations ranging from 10⁻¹² to 10⁻⁸ M in PBSMCT buffer (DPBS, pH 7.2 with 2.5 mM MgCl₂, 1 mM CaCl₂) and 0.01% TWEEN-20) at 37° C. for 90 minutes. Bound target protein was partitioned by magnetic separation and subsequently labeled via fluorescent anti-His-tag antibody. The fraction of anti-Ang2 aptamer bound was quantified by flow cytometry (BD Accuri C6 Plus). Raw binding data were corrected for nonspecific background binding of target protein to empty magnetic beads. The fraction of bound anti-Ang2 aptamer was plotted as a function of protein concentration and a non-linear curve-fitting algorithm (Langmuir one-site binding model) was used to extract equilibrium binding constants (KD values) from the data (FIG. 4A).
Angiopoietin-2 (Ang2), sequence (O15123 19-496, one chain of several): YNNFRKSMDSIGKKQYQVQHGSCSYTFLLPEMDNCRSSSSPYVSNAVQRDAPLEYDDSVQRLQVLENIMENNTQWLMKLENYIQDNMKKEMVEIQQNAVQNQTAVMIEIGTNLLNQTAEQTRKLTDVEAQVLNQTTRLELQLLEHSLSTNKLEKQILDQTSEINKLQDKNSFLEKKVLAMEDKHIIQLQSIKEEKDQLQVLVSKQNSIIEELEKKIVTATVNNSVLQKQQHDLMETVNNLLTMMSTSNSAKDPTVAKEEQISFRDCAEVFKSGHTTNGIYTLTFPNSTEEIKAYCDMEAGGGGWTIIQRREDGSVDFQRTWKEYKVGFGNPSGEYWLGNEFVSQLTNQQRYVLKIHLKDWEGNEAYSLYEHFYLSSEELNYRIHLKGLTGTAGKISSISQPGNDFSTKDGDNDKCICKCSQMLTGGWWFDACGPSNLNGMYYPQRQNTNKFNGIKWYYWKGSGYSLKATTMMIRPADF
For B1, the Kd was more than 1 nM.

As to B2, the Kd came out at 0.404 nM.

Consider B3, for which the Kd was found to be 0.033 nM.

For the molecule B4, the Kd was 0.043 nM.

B5: the Kd is 0.029 nM.

In a further data set the target is VEGF-121 (VEGFA isoform 121) (Homo sapiens, UniProt P15692 SEQ:1-121). In words: flow; PBSMCT, 37 C. The following applies: chain copies: 2 (inferred); label: biotin. On the procedure:
(§1) Truncated and modified variants of the anti-VEGF aptamers of the present disclosure were prepared by LGC Biosearch Technologies (Novato, Calif.), and their binding affinity to corresponding targets were examined. Briefly, the equilibrium binding constants of the enriched libraries were measured using magnetic bead partitioning. Biotinylated anti-VEGF aptamers were conjugated to the 1 μm streptavidin-coated MyOne Streptavidin Cl magnetic beads (Thermo Fisher Scientific, 65002). Binding assays were performed by incubating fixed concentration of anti-VEGF aptamer (0.01 nM) and target protein at concentrations ranging from 10⁻¹² to 10⁻⁸ M in PBSMCT buffer (DPBS, pH 7.2 with 2.5 mM MgCl₂, 1 mM CaCl₂) and 0.01% TWEEN-20) at 37° C. for 90 minutes. Bound target protein was partitioned by magnetic separation and subsequently labeled via fluorescent anti-VEGF or anti-His-tag antibody. The fraction of anti-VEGF aptamer bound was quantified by flow cytometry (BD Accuri C6 Plus). Raw binding data were corrected for nonspecific background binding of target protein to empty magnetic beads. The fraction of bound anti-VEGF aptamer was plotted as a function of protein concentration and a non-linear curve-fitting algorithm (Langmuir one-site binding model) was used to extract equilibrium binding constants (KD values) from the data (FIG. 1).
For B6, the Kd amounted to 0.245 nM.

Consider B7, for which the Kd stood at 14.2 nM.

As for B8, the Kd came to 0.761 nM.

Consider B9, for which the Kd is 11.8 nM.

In the case of B10, the Kd turned out to be 0.654 nM.

Consider B11, for which the Kd turned out to be 0.047 nM.

For the molecule B12, the Kd is 0.043 nM.

As to B13, the Kd is 0.095 nM.

With B14, the Kd came to 0.082 nM.

Turning to B15, the Kd is 0.092 nM.

Regarding B16, the dissociation constant (Kd) was determined as 0.107 nM.

As for B17, the Kd was found to be 0.511 nM.

B18: the Kd amounted to 0.049 nM.

With B19, the Kd came to 0.471 nM.

Regarding B20, the Kd amounted to 0.124 nM.

Take B21: the Kd came to 0.294 nM.

With B22, the Kd was 0.287 nM.

For B23, the Kd is 1.19 nM.

Turning to B24, the Kd worked out at 10.1 nM.

As to B25, the Kd came to 0.051 nM.

Take B26: the Kd stood at 0.126 nM.

Staying with this data set, now noted: chain copies: 2 (inferred); label: biotin; stem-loop with bulges.
For the molecule B27, the Kd was 0.045 nM.

For the molecule B28, the Kd was 0.104 nM.

A further data set addresses T1, VEGF-165 (VEGFA isoform 165). Kind of data set: flow; PBSMCT, 37 C. The following applies: chain copies: 2 (inferred); label: biotin. The protocol:
as §1
Take B6: the Kd amounted to 0.981 nM.

As to B10, the Kd amounted to 29.4 nM.

B11: the Kd is 0.092 nM.

In the case of B12, the Kd came to 0.087 nM.

As for B29, the Kd was 0.098 nM.

Consider B13, for which the Kd was 0.99 nM.

For B14, the Kd was 0.87 nM.

In the case of B15, the Kd came out at 0.102 nM.

On to B16, for which the Kd came out at 0.652 nM.

Consider B17, for which the Kd is 0.879 nM.

B18: the Kd was determined as 0.101 nM.

Take B19: the Kd amounted to 1.92 nM.

For the molecule B20, the Kd turned out to be 0.349 nM.

As for B21, the Kd was 0.356 nM.

Take B22: the Kd came to 0.876 nM.

Turning to B30, the Kd was found to be 0.087 nM.

B31: the Kd was determined as 0.324 nM.

Consider B32, for which the Kd was 1.01 nM.

For the molecule B25, the Kd stood at 0.098 nM.

Consider B33, for which the Kd is 0.419 nM.

With B34, the Kd came out at 0.111 nM.

For the molecule B26, the Kd was 0.678 nM.

The same data set, now with this note: chain copies: 2 (inferred); label: biotin; stem-loop with bulges.
With B27, the Kd is 0.096 nM.

B28: the dissociation constant Kd turned out to be 0.176 nM.
